From US20180280504A1, “GLYCAN-INTERACTING COMPOUNDS AND METHODS OF USE” (SIAMAB THERAPEUTICS, INC., priority 2014, published 2018)
“And” between values parts separate entries of the source, which are not always exact repeats. Identical values can stand only once. Like-named read-outs stand apart in the source and are kept apart here.

B1: 18C7: anti-STn mouse monoclonal, IgG2c κ, from mouse #4436; VH SEQ ID NO: 4, VL SEQ ID NO: 5 (antibody, V domains shown)
VH: QVTLKESGPGILQPSQTLSLTCSFSGFSLSTFGMGVGWIRQPSGKGLEWLAHIWWDDDKYYNPALKSRLTISKDTSKNQVFLKIANVDTADTATYYCARIAYYYGSERDYWGQGTTLTVSS
VL: QIVLTQSPAIMSASPGEKVTMTCSASSSISYMHWYHQKPGTSPKRWIYDTSKLASGVPARFSGSGSGTSYSLTISSMEAEDAATYYCHQRSSYTFGGGTKLEIKR
B2: 10A5: anti-STn mouse monoclonal, IgG2c κ, from mouse #4406; VH SEQ ID NO: 6, VL SEQ ID NO: 7 (antibody, V domains shown)
VH: QVQLKESGPGLVAPSQSLSITCTVSGFSLTSYGVSWVRQPPGKGLEWLGVIWGDGSTNYHSSLISRLSISKDNSKSQVFLKLNSLQTDDTATYYCARAFVYWGQGTLVTVSA
VL: QIVLTQSPAIMSASPGEKVTMTCSASSSVSYIHWYQQKSGTSPKRWIYDTSKLASGVPARFSGSGSGTSYSLTISSMEAEDAATYYCQQWSSNPPMLTFGAGTKLELK
B3: 7G9: anti-STn mouse monoclonal, IgG2b κ, from mouse #4407; VH SEQ ID NO: 12, VL SEQ ID NO: 9 (antibody, V domains shown)
VH: QVQLKESGPGLVAPSQNLSITCTVSGFSLTSYGVNWVRQPPGKGLEWLGVIWGDGSTNYHSALISRLIISKENSKSQVFLKLNSLQTNDTATYYCTKGFVYWGQGTLVTVSA
VL: QIVLTQSPAIMSASPGEKVTMTCSASSSVSYMHWYQQKSGTSPKRWIFDTSKLASGVPARFSGSGSGTSYSLTISSMEAEDAATYYCQQWSSNLLTFGAGTKLELK
B4: 8C11: anti-STn mouse monoclonal, IgG2b κ, from mouse #4407; VH SEQ ID NO: 8, VL SEQ ID NO: 9 (antibody, V domains shown)
VH: QVQLKESGPGLVAPSQSLSITCTVSGFSLTSYGVSWVRQPPGKGLEWLGVIWGDGSTNYHSALISRLIISKDNSKSQVFLKLNSLQTDDTATYYCTKGFTYWGQGTLVTVSA
VL: QIVLTQSPAIMSASPGEKVTMTCSASSSVSYMHWYQQKSGTSPKRWIFDTSKLASGVPARFSGSGSGTSYSLTISSMEAEDAATYYCQQWSSNLLTFGAGTKLELK
B5: 2D4: anti-STn mouse monoclonal, IgG2b κ, from mouse #4407; VH SEQ ID NO: 10, VL SEQ ID NO: 11 (antibody, V domains shown)
VH: QVQLQESGPGLVAPSQSLSITCTVSGFSLISYGVNWVRQPPGKGLEWLGVIWGDGSTNYQSALISRLIISKDNSKSQVFLKLNSLQTDDTATYYCTKGFAYWGQGTLVTVSA
VL: QIVLTQSPAIMSASPGEKVTMTCSASSSVSYMHWFQQKSGTSPKRWIYDTSKLASGVPARFSGSGSGTSYSLTISSMEAEDAATYYCQQWSSNLLTFGAGTKLELK

Key:
Glycan array, AcSTn = assay type: binding; settings: for Glycan Array AcSTn: summary table
Method: (§1) Optimized glycan arrays comprise 71 chemically synthesized and well-defined glycans, most of which comprise Neu5Ac and Neu5Gc glycan pairs.
(§2) 300 ml of epoxy blocking buffer is prepared by combining 15 ml of 2 M Tris buffer (pH 8) with 0.9 ml of 16.6 M ethanolamine and 284.1 ml of distilled water. The solution was brought to a final pH of 9.0 with HCl. The solution is filtered using a […] nitrocellulose membrane. The epoxy buffer solution as well as 1 L of distilled water are pre-warmed to 50° C. Glass slides are arranged in a slide holder and quickly submerged in a staining tub with the warmed epoxy blocking buffer. Slides are incubated in the epoxy blocking buffer for 1 hour at 50° C. with periodic shaking to deactivate epoxy binding sites. Next, slides are rinsed and blocked with PBS with 1% OVA at 25° C. for one hour. Serum samples with polyclonal antibodies (1:1000) or purified monoclonal antibodies (1 ug/mL), are diluted in PBS with 1% OVA and added to the glycan array for one hour at 25° C. After extensive washing, binding of antibodies are detected by incubating glycan microarray slides with Cy3-conjugated anti-mouse IgG (Jackson Immunoresearch, West Grove, Pa.) for one hour. Slides are then washed extensively, dried and scanned with a Genepix 4000B scanner (Laser at 100%; gain at 350; 10 μm pixels). Raw data from scanned images are extracted using the Genepix software and analysis of raw data is carried out.

Glycan array, GcSTn = assay type: binding; settings: for Glycan Array GcSTn: summary table
Method: as §1, §2

[1] = Glycan array STn specificity and anti-STn antibody group assignment; assay type: binding; set-up: key to Group (anti-STn antibody group): Group 1: antibodies capable of binding AcSTn and GcSTn; Group 2: ability to bind STn as well as some related structures that include an O-linkage to serine or threonine; Group 3: antibodies capable of binding STn, but may also bind a broader set of related structures; Group 4: capable of binding to both AcSTn and GcSTn as well as the un-sialylated Tn antigen; settings: for Group (anti-STn antibody group): assigned from flow cytometry and glycan array analysis; for Glycan Array STn Specificity: summary table
Method: as §2
Based on characterization data, anti-STn antibodies developed from Group 6 and Group 8 mice were categorized by anti-STn group number. In some cases, antibodies were assigned to Group 1. Group 1 antibodies according to the invention are antibodies capable of binding AcSTn and GcSTn. Such antibodies may have the ability to associate with a wider range of STn structures. The large oval in FIG. 1A indicates the portion of STn recognized by Group 1 antibodies. Antibodies were assigned to Group 2 based on their ability to bind STn as well as some related structures that include an O-linkage to serine or threonine. The large oval in FIG. 1B indicates the portion of STn recognized by Group 2 antibodies. In some cases, Group 2 antibodies may bind to glycans comprising a sialylated galactose residue. Some Group 2 antibodies preferably bind to structures with AcSTn over structures with GcSTn. Further anti-STn antibodies were assigned to Group 3. Group 3 antibodies are antibodies capable of binding STn, but may also bind a broader set of related structures. […] The large oval in FIG. 1C indicates the portion of STn recognized by Group 3 antibodies. Finally, some anti-STn antibodies were assigned to Group 4. Group 4 antibodies are capable of binding to both AcSTn and GcSTn as well as the un-sialylated Tn antigen, and therefore have broader specificity. The large oval in FIG. 1D indicates the portion of STn recognized by Group 4 antibodies. […] Also listed in the Table is the antibody Isotype for each antibody as determined by the IsoStrip mouse monoclonal antibody isotyping kit (Roche Diagnostics GmbH, Manheim, Germany).

[2] = system: ST6GalNAc 1 transfected MDA-MB-231 cells (MDA-STn+); assay: Flow cytometry-based analysis of antibody binding, STn+ cells; set-up: species or system human; settings: for EC50, flow cytometry binding to cell-associated STn: ST6GalNAc 1 transfected MDA-MB-231 cells, APC anti-mouse IgG
Method: Flow cytometry-based analysis is carried out to elucidate the curve-dose response for binding of antibodies to cell surface antigens. For these analyses, three cell lines are employed.
MDA-MB-231 cells are human breast cancer cells. They are grown in Earle's Minimum Essential Medium supplemented with 10% fetal calf serum (FCS), 100 μg/ml penicillin, 100 UI/ml streptomycin and 45 μg/ml gentamycin. MCF-7 cells are also human breast cancer cells and are grown under the same conditions as MDA-MB-231 cells. Stably transfected versions of MDA-MB-231 and MCF-7 cells (clone TAH3.P10 for MDA-MB-231 cells and clone A12.1 for MCF-7 cells) that over express GalNAc α2,6-sialyltransferase (ST6GalNAc 1,) are also cultured under the same conditions with the exception of an added 1 mg/ml of G418 to support cells expressing the transgene. ST6GalNAc 1 is an enzme capable of sialylating GalNAc. As a result of over expression, transfected cells express high levels of Neu5Ac-STn (see Julien, S. et al., Glycoconjugate journal. 2001. 18, 883-93; the contents of which are herein incorporated by reference in their entirety). E3 cells are murine breast cancer cells. They are cultured in Dulbecco's E4 medium with 10% FCS. Stably transfected versions of E3 cells expressing high levels of Neu5Gc-STn (E3-STn) are cultured with 600 μg/ml of G418 and 200 μg/ml hygromycin. During growth and maintenance of experimental cells, trypsin is not used for cell passaging.
For analysis, cells are harvested using StemPro Accutase (Life Technologies, Carlsbad, Calif.) and washed with PBS comprising 5% FBS before pelleting by light centrifugation. Cell numbers and viability are determined by trypan blue dye exclusion analysis and cell concentrations are adjusted to 5×10^6 cells/ml in PBS with 5% FBS. 50 μl of cells are added to each well of an assay plate. Cells are combined with 50 μl solutions of antibody being analyzed or control antibodies and incubated for 1 hour at 4° C. Cells are washed and pelleted twice with PBS with 5% FBS before being treated with 100 μl of PBS with 5% FBS comprising a 1:1,500 dilution of anti-mouse IgG (Southern Biotech, Birmingham, Ala.,) conjugated to allophycocyanin (APC). Cells are incubated for 30 min at 4° C. before washing and resuspending in 200 μl of propidium iodide (PI) diluted 1:1000 in PBS with 5% FBS. Treated cells are then subjects to flow cytometry analysis and 10,000 events are acquired for each sample.

[3] = glycan microarray, Cy3 anti-mouse IgG
[4] = summary table, unit not printed (same values in nM), read-out: Flow cytometry (EC50) MDA-STn+
[5] = STn expressed on MDA cells, based on mean fluorescence intensity of APC, #1, #2, #3 = lots, nM, read-out: EC50 value

Molecule	mean fluorescence intensity, AcSTn (Glycan array, AcSTn; [3])	Glycan Array AcSTn (Glycan array, AcSTn) [%]	mean fluorescence intensity, GcSTn (Glycan array, GcSTn; [3])	Glycan Array GcSTn (Glycan array, GcSTn) [%]	Group (anti-STn antibody group) [1]	Glycan Array STn Specificity [1] [%]	EC50, flow cytometry binding to cell-associated STn [2]	EC50 [2, 4] [nM]	EC50 [2, 5] [nM]	EC50, flow cytometry binding to cell-associated STn ([2]; listed as 7G9#2) [nM]	EC50, flow cytometry binding to cell-associated STn ([2]; listed as 7G9#3) [nM]	EC50, flow cytometry binding to cell-associated STn ([2]; listed as 8C11 Lot 111113) [nM]	EC50, flow cytometry binding to cell-associated STn ([2]; listed as 2D4-1B4) [nM]	EC50 ([2]; STn expressed on MDA cells, based on mean fluorescence intensity of APC, #1, #2, #3 = lots, nM, listed as 2D4#1, read-out: EC50 value) [nM]	EC50 ([2]; STn expressed on MDA cells, based on mean fluorescence intensity of APC, #1, #2, #3 = lots, nM, listed as 2D4#2, read-out: EC50 value) [nM]
B1	about 9,000	60	about 3,500	40	Group 1	100	60.35 nM	354							
B2		96		1	Group 2	97	3.62 nM and 5.57 nM	5.57	5.57						
B3		72		7	Group 2	79	6.91 nM	5.15	5.15	7.33	5.15				
B4		75		9	Group 2	84	7.52 nM					7.28			
B5		88		1	Group 2	89	1.41 nM	1.41					1.19	2.23	1.41
